Ends that are not written are not given here.

Broadly, the EC50 is the midpoint of the concentration-response curve.

Test [1] deals with NS3aH1-VPR, cells treated with grazoprevir (hepatitis C virus). Kind of test: cell-based or functional assay.
Test [2] has as its target NS3aH1-VPR, cells treated with danoprevir (hepatitis C virus). Kind of test: cell-based or functional assay.
Test [3] concerns the target NS3a (active), Avi-His6-NS3a catalytically active. Description: fluorescence polarization; FB50. The settings on record: chains peptide; modification not given.
Test [4] shares this target. Description: fluorescence polarization; FB50. The settings on record: chains peptide; modification not given. The source holds these as a separate data set.

B1: NLS-MCP-GNCR1 (from NLS-MCP-GNCR1-P2a-BFP) (designed binder)
chain: MPKKKRKVGSMASNFTQFVLVDNGGTGDVTVAPSNFANGIAEWISSNSRSQAYKVTCSVRQSSAQNRKYTIKVEVPKGAWRSYLNMELTIPIFATNSDCELIVKAMQGLLKDGNPIPSAIAANSGIYGSGGSGDIEKLCKKAEEEAKEAQEKADELRQRHPDSQAAEDAEDLANLAVAAVLTACLLAQEHPNADIAKLCIKAASEAAEAASKAAELAQRHPDSQAARDAIKLASQAARAVILAIMLAAENPNADIAKLCIKAASEAAEAASKAAELAQRHPDSQAARDAIKLASQAAEAVERAIWLAAENPNADIAKKCIKAASEAAEEASKAAEEAQRHPDSQKARDEIKEASQKAEEVKERCKSEQKLISEEDLGSGATNFSLLKQAGDVEENPG
In the case of B1, the EC50 of the grazoprevir titration, CXCR4 immunofluorescence in test [1] is 0.16 nM.

B2: NLS-PCP-DNCR2 (from NLS-PCP-DNCR2-P2a-BFP) (designed binder)
chain: MPKKKRKVGSMSKTIVLSVGEATRTLTEIQSTADRQIFEEKVGPLVGRLRLTASLRQNGAKTAYRVNLKLDQADVVDSGLPKVRYTQVWSHDVTIVANSTEASRKSLYDLTKSLVATSQVEDLVVNLVPLGRGSGSGSSDEEEARELIERAKEAAERAQEAAERTGDPRVRELARELKRLAQEAAEEVKRDPSSSDVNEALKLIVEAIEAAVDALEAAERTGDPEVRELARELVRLAVEAAEEVQRNPSSSDVNEALHSIVYAIEAAIFALEAAERTGDPEVRELARELVRLAVEAAEEVQRNPSSRNVEHALMRIVLAIYLAEENLREAEESGDPEKREKARERVREAVERAEEVQRDPSGWLNHEQKLISEEDLGSGATNFSLLKQAGDVEENPG
In turn, B2 registered an EC50 of the danoprevir titration, GFP fluorescence in test [2] of 0.79 nM.

B3: FAM-ANR (peptide)
chain: GSGSGELDELVYLLDGPGYDPIHSD
modifications: not fully specified (N-terminus)
B3: the results for the EC50 in test [3] and in test [4] were 30 nM and 40 nM, respectively.

For the origin of these results see patent publication US20220025003A1, “REAGENTS AND METHODS FOR CONTROLLING PROTEIN FUNCTION AND INTERACTION” (University of Washington, priority 2018, published 2022).
